Measured values reported in patent US20240117018A1.

What was measured:
Assay in all cases: cell-based or functional assay
[1] = target: HIV-1 Env of pseudovirus BJOX028000.10.3 (HIV-1)
[2] = target: HIV-1 Env of pseudovirus 0815.v3.c3 (HIV-1)
[3] = target: HIV-1 Env of pseudovirus 263-8 (HIV-1)
[4] = target: HIV-1 Env of pseudovirus T251-18 (HIV-1)
[5] = target: HIV-1 Env of pseudovirus 231965.c01 (HIV-1)
[6] = target: HIV-1 Env of pseudovirus 191955_A11 (HIV-1)
[7] = target: HIV-1 Env of pseudovirus 235-47 (HIV-1)
[8] = target: HIV-1 Env of pseudovirus 928-28 (HIV-1)
[9] = target: HIV-1 Env of pseudovirus 9004SS_A3_4 (HIV-1)
[10] = target: HIV-1 Env of pseudovirus 3817.v2.c59 (HIV-1)
[11] = target: HIV-1 Env of pseudovirus P0402_c2_11 (HIV-1)
[12] = target: HIV-1 Env of pseudovirus 6540.v4.c1 (HIV-1)
[13] = target: HIV-1 Env of pseudovirus BJOX015000.11.5 (HIV-1)
[14] = target: HIV-1 Env of pseudovirus 620345.c01 (HIV-1)
[15] = target: HIV-1 Env of pseudovirus C4118.c09 (HIV-1)
[16] = target: HIV-1 Env of pseudovirus 231966.c02 (HIV-1)
[17] = target: HIV-1 Env of pseudovirus 3103.v3.c10 (HIV-1)
[18] = target: HIV-1 Env of pseudovirus BJOX025000.01.1 (HIV-1)
[19] = target: HIV-1 Env of pseudovirus 6952.v1.c20 (HIV-1)
[20] = target: HIV-1 Env of pseudovirus 6545.v4.c1 (HIV-1)
[21] = target: HIV-1 Env of pseudovirus C3347.c11 (HIV-1)
[22] = target: HIV-1 Env of pseudovirus R1166.c01 (HIV-1)
[23] = target: HIV-1 Env of pseudovirus R2184.c04 (HIV-1)
[24] = target: HIV-1 Env of pseudovirus 211-9 (HIV-1)
[25] = target: HIV-1 Env of pseudovirus BJOX010000.06.2 (HIV-1)
[26] = target: HIV-1 Env of pseudovirus T255-34 (HIV-1)
[27] = target: HIV-1 Env of pseudovirus 6811.v7.c18 (HIV-1)
[28] = target: HIV-1 Env of pseudovirus T257-31 (HIV-1)
[29] = target: HIV-1 Env of pseudovirus 6480.v4.c25 (HIV-1)
[30] = target: HIV-1 Env of pseudovirus 3016.v5.c45 (HIV-1)
[31] = target: HIV-1 Env of pseudovirus R3265.c06 (HIV-1)
[32] = target: HIV-1 Env of pseudovirus X2131_C1_B5 (HIV-1)
[33] = target: HIV-1 Env of pseudovirus P1981_C5_3 (HIV-1)
[34] = target: HIV-1 Env of pseudovirus 89-F1_2_25 (HIV-1)
[35] = target: HIV-1 Env of pseudovirus 3301.v1.c24 (HIV-1)
[36] = target: HIV-1 Env of pseudovirus X1254_c3 (HIV-1)
[37] = target: HIV-1 Env of pseudovirus A07412M1.vrc12 (HIV-1)

## N49P9 (antibody)
[1]
  neutralization IC50: 0.031 µg/mL
  neutralization IC80: 0.134 µg/mL
  neutralization MPI: 100
[2]
  neutralization IC50: 0.02 µg/mL
  neutralization IC80: 0.057 µg/mL
  neutralization MPI: 100
[3]
  neutralization IC50: 0.032 µg/mL
  neutralization IC80: 0.161 µg/mL
  neutralization MPI: 100
[4]
  neutralization IC50: 0.147 µg/mL
  neutralization IC80: 0.517 µg/mL
  neutralization MPI: 100
[5]
  neutralization IC50: 0.253 µg/mL
  neutralization IC80: 1.16 µg/mL
  neutralization MPI: 100
[6]
  neutralization IC50: > 50 µg/mL
  neutralization IC80: > 50 µg/mL
  neutralization MPI: 35
[7]
  neutralization IC50: 0.072 µg/mL
  neutralization IC80: 0.271 µg/mL
  neutralization MPI: 98
[8]
  neutralization IC50: 0.094 µg/mL
  neutralization IC80: 0.339 µg/mL
  neutralization MPI: 100
[9]
  neutralization IC50: 0.175 µg/mL
  neutralization IC80: 0.751 µg/mL
  neutralization MPI: 100
[10]
  neutralization IC50: 1.09 µg/mL
  neutralization IC80: 5.86 µg/mL
  neutralization MPI: 100
[11]
  neutralization IC50: 0.028 µg/mL
  neutralization IC80: 0.085 µg/mL
  neutralization MPI: 100
[12]
  neutralization IC50: > 50 µg/mL
  neutralization IC80: > 50 µg/mL
  neutralization MPI: 49
[13]
  neutralization IC50: 0.089 µg/mL
  neutralization IC80: 0.375 µg/mL
  neutralization MPI: 100
[14]
  neutralization IC50: > 50 µg/mL
  neutralization IC80: > 50 µg/mL
  neutralization MPI: 9
[15]
  neutralization IC50: 0.072 µg/mL
  neutralization IC80: 0.2 µg/mL
  neutralization MPI: 100
[16]
  neutralization IC50: 0.074 µg/mL
  neutralization IC80: 0.244 µg/mL
  neutralization MPI: 100
[17]
  neutralization IC50: 17.6 µg/mL
  neutralization IC80: > 50 µg/mL
  neutralization MPI: 55
[18]
  neutralization IC50: 0.055 µg/mL
  neutralization IC80: 0.252 µg/mL
  neutralization MPI: 100
[19]
  neutralization IC50: 0.095 µg/mL
  neutralization IC80: 0.258 µg/mL
  neutralization MPI: 100
[20]
  neutralization IC50: > 50 µg/mL
  neutralization IC80: > 50 µg/mL
  neutralization MPI: 20
[21]
  neutralization IC50: 0.023 µg/mL
  neutralization IC80: 0.065 µg/mL
  neutralization MPI: 100
[22]
  neutralization IC50: 0.064 µg/mL
  neutralization IC80: 0.223 µg/mL
  neutralization MPI: 100
[23]
  neutralization IC50: 0.015 µg/mL
  neutralization IC80: 0.034 µg/mL
  neutralization MPI: 100
[24]
  neutralization IC50: 0.136 µg/mL
  neutralization IC80: 0.485 µg/mL
  neutralization MPI: 100
[25]
  neutralization IC50: 0.482 µg/mL
  neutralization IC80: 2.34 µg/mL
  neutralization MPI: 100
[26]
  neutralization IC50: 0.051 µg/mL
  neutralization IC80: 0.247 µg/mL
  neutralization MPI: 100
[27]
  neutralization IC50: 0.249 µg/mL
  neutralization IC80: 1.2 µg/mL
  neutralization MPI: 99
[28]
  neutralization IC50: 0.216 µg/mL
  neutralization IC80: 0.821 µg/mL
  neutralization MPI: 100
[29]
  neutralization IC50: 0.017 µg/mL
  neutralization IC80: 0.047 µg/mL
  neutralization MPI: 100
[30]
  neutralization IC50: 0.06 µg/mL
  neutralization IC80: 0.209 µg/mL
  neutralization MPI: 100
[31]
  neutralization IC50: 0.135 µg/mL
  neutralization IC80: 0.812 µg/mL
  neutralization MPI: 100
[32]
  neutralization IC50: 0.082 µg/mL
  neutralization IC80: 0.274 µg/mL
  neutralization MPI: 100
[33]
  neutralization IC50: 0.308 µg/mL
  neutralization IC80: 0.701 µg/mL
  neutralization MPI: 100
[34]
  neutralization IC50: > 50 µg/mL
  neutralization IC80: > 50 µg/mL
  neutralization MPI: 23
[35]
  neutralization IC50: 0.072 µg/mL
  neutralization MPI: 100
[36]
  neutralization IC50: 0.04 µg/mL
  neutralization IC80: 0.104 µg/mL
  neutralization MPI: 100
[37]
  neutralization IC50: 0.142 µg/mL
  neutralization IC80: 0.636 µg/mL
  neutralization MPI: 100
